From patent US20030165887A1 (BURNHAM INSTITUTE, published 2003)

B1: TUCAN fragment lacking the CARD (residues 1-337) (other)
chain: MMRQRQSHYCSVLFLSVNYLGGTFPGDICSEENQIVSSYASKVCFEIEEDYKNRQFLGPEGNVDVELIDKSTNRYSVWFPTAGWYLWSATGLGFLVRDEVTVTIAFGSWSQHLALDLQHHEQWLVGGPLFDVTAEPEEAVAEIHLPHFISLQGEVDVSWFLVAHFKNEGMVLEHPARVEPFYAVLESPSFSLMGILLRIASGTRLSIPITSNTLIYYHPHPEDIKFHLYLVPSDALLTKAIDDEEDRFHGVRLQTSPPMEPLNFGSSYIVSNSANLKVMPKELKLSYRSPGEIQHFSKFYAGQMKEPIQLEITEKRHGTLVWDTEVKPVDLQLVAAS
notes: also called ΔCARD; ΔCARD fragment of TUCAN

Experiments:
[1] = target: T1, TUCAN (Tumor Up-regulated CARD-containing Antagonist of Caspase Nine), full-length (Homo sapiens (Human), UniProt Q9Y2G2 131-537); test: co-immunoprecipitation with HA- and Myc-tagged proteins
T1 construct: Full-length TUCAN expressed by transient transfection in HEK293T cells; also called full-length TUCAN; CARD-X
T1 sequence: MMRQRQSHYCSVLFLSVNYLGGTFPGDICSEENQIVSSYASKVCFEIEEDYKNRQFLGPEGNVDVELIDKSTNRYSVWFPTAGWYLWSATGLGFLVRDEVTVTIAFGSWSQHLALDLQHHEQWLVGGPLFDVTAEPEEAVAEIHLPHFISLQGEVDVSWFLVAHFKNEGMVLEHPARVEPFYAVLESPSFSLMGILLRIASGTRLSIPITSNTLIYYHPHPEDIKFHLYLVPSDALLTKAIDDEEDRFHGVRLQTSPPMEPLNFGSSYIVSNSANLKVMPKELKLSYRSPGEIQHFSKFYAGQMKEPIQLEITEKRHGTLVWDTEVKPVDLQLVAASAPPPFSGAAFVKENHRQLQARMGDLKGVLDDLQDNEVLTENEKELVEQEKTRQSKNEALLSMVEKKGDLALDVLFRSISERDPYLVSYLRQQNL

[2] = target: B1; test: co-immunoprecipitation, transfected cells, SDS-PAGE/immunoblot
[3] = target: T1, TUCAN (Tumor Up-regulated …); test: co-immunoprecipitation, transfected HEK293T cells, SDS-PAGE/immunoblot

## B1
[1]
  binding result: no binding

B2: pro-caspase-9 inactive mutant (Cys287/Ala) (enzyme)
chain: MDEADRRLLRRCRLRLVEELQVDQLWDALLSSELFRPHMIEDIQRAGSGSRRDQARQLIIDLETRGSQALPLFISCLEDTGQDMLASFLRTNRQAAKLSKPTLENLTPVVLRPEIRKPEVLRPETPRPVDIGSGGFGDVGALESLRGNADLAYILSMEPCGHCLIINNVNFCRESGLRTRTGSNIDCEKLRRRFSSPHFMVEVKGDLTAKKMVLALLELAQQDHGALDCCVVVILSHGCQASHLQFPGAVYGTDGCPVSVEKIVNIFNGTSCPSLGGKPKLFFIQAAGGEQKDHGFEVASTSPEDESPGSNPEPDATPFQEGLRTFDQLDAISSLPTPSDIFVSYSTFPGFVSWRDPKSGSWYVETLDDIFEQWAHSEDLQSLLLRVANAVSVKGIYKQMPGCFNFLRKKLFFKTS
[2]
  binding result: no binding

B3: Bcl10 (CIPER; huE10) (other, UniProt O95999 1-233, looked up)
chain: MEPTAPSLTEEDLTEVKKDALENLRVYLCEKIIAERHFDHLRAKKILSREDTEEISCRTSSRKRAGKLLDYLQENPKGLDTLVESIRREKTQNFLIQKITDEVLKLRNIKLEHLKGLKCSSCEPFPDGATNNLSRSNSDESNFSEKLRASTVMYHPEGESSTTPFFSTNSSLNLPVLEVGRTENTIFSSTTLPRPGDPGAPPLPPDLQLEEEGTCANSSEMFLPLRSRTVSRQ
[3]
  binding result: no binding

B4: pro-Caspase-1 (enzyme, UniProt P29466 1-404, looked up)
chain: MADKVLKEKRKLFIRSMGEGTINGLLDELLQTRVLNKEEMEKVKRENATVMDKTRALIDSVIPKGAQACQICITYICEEDSYLAGTLGLSADQTSGNYLNMQDSQGVLSSFPAPQAVQDNPAMPTSSGSEGNVKLCSLEEAQRIWKQKSAEIYPIMDKSSRTRLALIICNEEFDSIPRRTGAEVDITGMTMLLQNLGYSVDVKKNLTASDMTTELEAFAHRPEHKTSDSTFLVFMSHGIREGICGKKHSEQVPDILQLNAIFNMLNTKNCPSLKDKPKVIIIQACRGDSPGVVWFKDSVGVSGNLSLPTTEEFEDDAIKKAHIEKDFIAFCSSTPDNVSWRHPTMGSVFIGRLIEHMQEYACSCDVEEIFRKVRFSFEQPDGRAQMPTTERVTLTRCFYLFPGH
[3]
  binding result: no binding
